In assay [1] the target is DSG2 on human cells (HeLa, T84) (human) (UniProt Q14126). The assay is described as follows: competition with 3H-labelled Ad3 virus for attachment to HeLa cells.
The target is the same in assay [2]. The assay is described as follows: cell-based or functional assay.
For a further assay, the target named is T1, Soluble CD46 (UniProt P15529 35-343).
T1 construct: also called sCD46
T1 sequence: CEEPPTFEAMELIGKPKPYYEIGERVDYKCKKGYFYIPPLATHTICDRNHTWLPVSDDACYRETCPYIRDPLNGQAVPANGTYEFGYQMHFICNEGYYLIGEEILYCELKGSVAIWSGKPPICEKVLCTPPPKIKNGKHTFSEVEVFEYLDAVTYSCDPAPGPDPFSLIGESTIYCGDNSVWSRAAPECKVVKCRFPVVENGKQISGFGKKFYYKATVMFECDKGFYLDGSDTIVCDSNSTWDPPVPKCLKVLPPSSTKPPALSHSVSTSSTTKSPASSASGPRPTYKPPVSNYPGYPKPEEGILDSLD
The assay is described as follows: Western blot, soluble CD46 as probe, anti-CD46 mAb. (In western blotting, separated proteins are transferred to a membrane and probed.)

For assay [3], the target named is T2, DSG2 on human cells (HeLa, T84) (human, UniProt Q14126 50-1118).
T2 sequence: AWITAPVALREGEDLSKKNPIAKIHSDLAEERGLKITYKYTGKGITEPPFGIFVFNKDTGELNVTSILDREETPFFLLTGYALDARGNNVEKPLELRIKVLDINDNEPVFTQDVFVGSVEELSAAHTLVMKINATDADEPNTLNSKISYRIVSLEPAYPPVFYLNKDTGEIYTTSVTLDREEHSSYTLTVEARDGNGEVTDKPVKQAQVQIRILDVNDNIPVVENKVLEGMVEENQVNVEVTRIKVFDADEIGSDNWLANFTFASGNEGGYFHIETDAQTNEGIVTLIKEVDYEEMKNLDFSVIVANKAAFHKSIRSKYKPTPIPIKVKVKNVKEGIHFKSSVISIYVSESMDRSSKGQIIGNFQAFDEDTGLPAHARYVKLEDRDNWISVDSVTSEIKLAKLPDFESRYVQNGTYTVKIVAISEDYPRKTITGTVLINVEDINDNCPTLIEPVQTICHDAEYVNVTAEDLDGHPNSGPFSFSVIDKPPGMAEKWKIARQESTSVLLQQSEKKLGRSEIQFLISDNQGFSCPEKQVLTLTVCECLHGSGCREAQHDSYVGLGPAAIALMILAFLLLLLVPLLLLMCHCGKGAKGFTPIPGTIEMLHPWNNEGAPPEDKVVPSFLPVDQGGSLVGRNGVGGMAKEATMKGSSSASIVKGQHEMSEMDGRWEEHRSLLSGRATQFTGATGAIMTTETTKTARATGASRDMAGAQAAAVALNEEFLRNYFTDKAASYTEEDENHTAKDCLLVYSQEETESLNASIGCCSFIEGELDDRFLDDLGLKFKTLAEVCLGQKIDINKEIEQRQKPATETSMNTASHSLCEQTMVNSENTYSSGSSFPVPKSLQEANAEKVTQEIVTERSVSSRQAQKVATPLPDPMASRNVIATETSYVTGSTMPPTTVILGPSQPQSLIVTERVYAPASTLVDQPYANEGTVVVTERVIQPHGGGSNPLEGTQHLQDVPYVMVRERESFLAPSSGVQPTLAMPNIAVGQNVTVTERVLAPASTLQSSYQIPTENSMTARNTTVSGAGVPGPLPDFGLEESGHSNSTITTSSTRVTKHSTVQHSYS
The assay is described as follows: cell-based or functional assay.

Assay [4] concerns the target T2, DSG2 on human cells (HeLa, T84). The assay is described as follows: cell-based or functional assay. The source holds these as a separate data set.
Assay [5] deals with T3, Recombinant human DSG2 protein (desmoglein 2), soluble (human, UniProt Q14126 50-609).
T3 construct: also called soluble DSG2; soluble recombinant DSG2
T3 sequence: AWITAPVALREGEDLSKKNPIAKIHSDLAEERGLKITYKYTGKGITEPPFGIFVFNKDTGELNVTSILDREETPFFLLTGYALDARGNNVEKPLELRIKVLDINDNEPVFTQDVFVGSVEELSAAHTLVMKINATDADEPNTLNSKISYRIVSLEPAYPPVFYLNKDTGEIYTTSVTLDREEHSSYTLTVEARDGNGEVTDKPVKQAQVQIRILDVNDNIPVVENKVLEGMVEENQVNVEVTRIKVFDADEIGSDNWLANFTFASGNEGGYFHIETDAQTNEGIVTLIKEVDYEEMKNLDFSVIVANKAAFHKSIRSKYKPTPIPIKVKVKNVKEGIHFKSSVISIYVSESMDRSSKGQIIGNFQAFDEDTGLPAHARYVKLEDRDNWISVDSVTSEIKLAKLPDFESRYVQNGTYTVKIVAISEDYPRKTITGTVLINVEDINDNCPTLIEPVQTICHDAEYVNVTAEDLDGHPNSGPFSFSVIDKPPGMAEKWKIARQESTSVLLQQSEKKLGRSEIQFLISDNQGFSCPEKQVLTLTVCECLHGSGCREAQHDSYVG
In words: Western blot of dimeric knob, soluble DSG2 as probe.

The target of assay [6] is T3, Recombinant human DSG2 protein …. In words: Western blot of the blotted knob protein probed with soluble human DSG2, anti-DSG2 mAb 6D8 and HRP-anti-mouse IgG.
Assay [7] has as its target T2, DSG2 on human cells (HeLa, T84). The assay is described as follows: cell-based or functional assay. This is another data set of the same source.
The target in assay [8] is T3, Recombinant human DSG2 protein …. The assay is described as follows: SPR, DSG2 immobilised; the filing's constants were got with the knobs without dimerization domain, so the value is set on V239D/noDD. (In SPR one partner is held on a chip, and binding of the other changes the refractive index at the surface.)
Assay [9] shares this target. The assay is described as follows: SPR, DSG2 immobilised; the filing's constants were got with the knobs without dimerization domain, so the value is set on Y250F/noDD.

Where a chain is given by its changes, count along the chain named. In names and notes the source's numbering stands. Read-outs that look alike come from different tables or passages of the source.

For the molecule “Dimeric Ad3 fiber knob mutant N186D, D261N, L296R (ligand)”, the Inhibition of attachment in the presence of dimeric knob (JO-1 = 100%) in assay [1] is 18.5%. The Inhibition of infection in the presence of dimeric knob (JO-1 = 100%) in assay [2] worked out at 0%.

Take “Dimeric Ad3 fiber knob mutant D261N, L296R (ligand)”: the Inhibition of attachment in the presence of dimeric knob (JO-1 = 100%) in [1] was 20.1%. In addition, in assay [2], the Inhibition of infection in the presence of dimeric knob (JO-1 = 100%) stood at 1.5%.

B1: Ad3-S6/Kn (ligand)
chain: NGVLSLKCVNPLTTASGSLQLKVGSGLTVDTTDGSLEENIKVNTPLTKSNHSINLPIGNGLQIEQNKLCSKLGNGLTFDSSNSIALKNNTLWTGPKPEANCIIEYGKQNPDSKLTLILVKNGGIVNGYVTLMGASDYVNTLFKNKNVSINVELYFDATGHILPDSSSLKTDLELKYKQTADFSARGFMPSTTAYPFVLPNAGTHNENYIFGQCYYKASDGALFPLEVTVMLNKRLPDSRTSYVMTFLWSLNAGLAPETTQATLITSPFTFSYIREDD
notes: also called Ad3 fiber knob with six shaft motifs
As for B1, the binding result with Soluble CD46 was “no binding”.

B2: JO-1 (dimeric wild-type Ad3 fiber knob) (ligand)
chain: MKVSALKEKVSALKEKVSALKEKVSALKEKVSALKEGSGGGSGGGSGGGSNSIALKNNTLWTGPKPEANCIIEYGKQNPDSKLTLILVKNGGIVNGYVTLMGASDYVNTLFKNKNVSINVELYFDATGHILPDSSSLKTDLELKYKQTADFSARGFMPSTTAYPFVLPNAGTHNENYIFGQCYYKASDGALFPLEVTVMLNKRLPDSRTSYVMTFLWSLNAGLAPETTQATLITSPFTFSYIREDD
notes: also called dimeric wt Ad3 fiber knob; dimeric wtAd3 knob
With B2, the “IC50 (read off the curve): inhibition of Ad3-GFP infection of HeLa cells, % GFP-positive cells” value in [3] was approximately 5 µg/mL. In addition, the “IC50 (read off the curve): inhibition of Ad3-GFP infection of HeLa cells, MFI of GFP” value in assay [4] was approximately 0.6 µg/mL. In the assay with Soluble CD46, the binding result is listed as “no binding”.

B3: Dimeric Ad3 fiber knob mutant N186D, D261N, L296R (ligand)
chain: B2 chain with N113D, D188N, L223R
notes: also called mutant with mutations in all three areas (N185, D261, L296)
Take B3: in assay [5], the binding result was “no binding”.

B4: Ad3-S/Kn (ligand)
chain: SIALKNNTLWTGPKPEANCIIEYGKQNPDSKLTLILVKNGGIVNGYVTLMGASDYVNTLFKNKNVSINVELYFDATGHILPDSSSLKTDLELKYKQTADFSARGFMPSTTAYPFVLPNAGTHNENYIFGQCYYKASDGALFPLEVTVMLNKRLPDSRTSYVMTFLWSLNAGLAPETTQATLITSPFTFSYIREDD
Regarding B4, the binding result (in assay [6]; in the assay with Soluble CD46) was “no binding” throughout.

B5: Ad3 fiber knob mutant V239D without dimerization domain (ligand)
chain: NKLCSKLGNGLTFDSSNSIALKNNTLWTGPKPEANCIIEYGKQNPDSKLTLILVKNGGIVNGYVTLMGASDYVNTLFKNKNVSINVELYFDATGHILPDSSSLKTDLELKYKQTADFSARGFMPSTTAYPFDLPNAGTHNENYIFGQCYYKASDGALFPLEVTVMLNKRLPDSRTSYVMTFLWSLNAGLAPETTQATLITSPFTFSYIREDD
notes: range 108-319; also called V239D/noDD; not shown: N-terminal 6-His tag of pQE30 and a Gly/Ser linker coded by primer P1
As to B5, the “IC50 (read off the curve): inhibition of Ad3-GFP infection of HeLa cells, MFI of GFP” value in assay [7] was approximately 4 µg/mL. Besides, the Kd in assay [8] amounted to 24.9 nM.

B6: Ad3 fiber knob mutant Y250F without dimerization domain (ligand)
chain: B5 chain with D132V, Y143F
notes: range 108-319; also called Y250F/noDD; not shown: N-terminal 6-His tag of pQE30 and a Gly/Ser linker coded by primer P1
B6: the dissociation constant Kd in assay [9] came to 11.4 nM.

Usually Kd stands for the equilibrium constant for the complex coming apart.

Values taken from patent US20240083953A1 (University of Washington, published 2024).
